The target in one experiment is Dog CCR8 (dog). In words: FACS binding, dog CCR8-293T cells. On the technique in general: In flow cytometry, cells or beads pass a laser one at a time.
A further experiment has as its target T1, rat CCR8 (rat, UniProt D4ADE0 1-353).
T1 chain: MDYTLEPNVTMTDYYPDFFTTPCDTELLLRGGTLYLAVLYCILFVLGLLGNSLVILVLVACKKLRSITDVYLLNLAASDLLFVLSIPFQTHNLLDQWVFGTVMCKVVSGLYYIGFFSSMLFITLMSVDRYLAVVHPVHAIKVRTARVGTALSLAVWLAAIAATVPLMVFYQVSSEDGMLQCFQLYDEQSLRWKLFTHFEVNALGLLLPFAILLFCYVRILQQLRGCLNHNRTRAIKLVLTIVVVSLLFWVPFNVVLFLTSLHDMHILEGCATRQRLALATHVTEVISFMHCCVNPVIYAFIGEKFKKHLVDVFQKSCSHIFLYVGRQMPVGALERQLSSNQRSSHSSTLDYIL
Description: FACS binding, rat CCR8-293T cells.

In a further experiment the target is T2, mouse CCR8 (mouse, UniProt P56484 1-353).
T2 chain: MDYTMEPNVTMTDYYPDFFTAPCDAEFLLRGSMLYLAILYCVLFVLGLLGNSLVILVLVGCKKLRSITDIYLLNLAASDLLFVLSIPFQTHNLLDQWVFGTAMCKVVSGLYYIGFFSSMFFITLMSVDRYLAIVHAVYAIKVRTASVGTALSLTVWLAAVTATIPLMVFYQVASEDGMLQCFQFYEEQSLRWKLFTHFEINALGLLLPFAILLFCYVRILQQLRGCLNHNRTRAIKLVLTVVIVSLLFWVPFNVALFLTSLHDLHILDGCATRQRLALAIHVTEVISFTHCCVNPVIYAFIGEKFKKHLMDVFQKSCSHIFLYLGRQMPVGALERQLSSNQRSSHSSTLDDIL
In words: FACS binding, mouse CCR8-CHOK1 cells.

The next experiment has as its target T3, cynomolgus CCR8 (cynomolgus, UniProt G7NYJ2 1-355).
T3 chain: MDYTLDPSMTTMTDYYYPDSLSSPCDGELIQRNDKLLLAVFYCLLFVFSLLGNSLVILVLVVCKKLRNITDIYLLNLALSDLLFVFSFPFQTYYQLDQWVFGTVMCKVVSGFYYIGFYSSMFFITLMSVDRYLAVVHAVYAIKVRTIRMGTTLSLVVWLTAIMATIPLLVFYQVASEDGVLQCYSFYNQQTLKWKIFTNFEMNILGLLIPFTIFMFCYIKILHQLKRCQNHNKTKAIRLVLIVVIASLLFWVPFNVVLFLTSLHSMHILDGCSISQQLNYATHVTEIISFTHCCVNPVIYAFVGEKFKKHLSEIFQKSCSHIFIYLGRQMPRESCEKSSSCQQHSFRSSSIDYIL
In words: FACS binding, cyno CCR8-293T cells.

From patent US20240352134A1 (published 2024) come the findings set out here.

B1: 3F11hz4 (antibody, V domains shown)
VH: EVQLVESGGGLVQPGGSLKLSCAASGFSFNTYAMNWVRQASGKGLEWVGRIRSKSNYYATYYAASVKGRFTISRDDSKSTLYLQMNSLKTEDTAVYYCVRGRELGDYYAMDYWGQGTLVTVSS
VL: DIVMTQSPLSLPVTPGEPASISCRSSKSLLHSNGNTYLYWFLQKPGQSPQLLIYRMSNLASGVPDRFSGSGSGTDFTLKISRVEAEDVGVYYCMQHLEYPFTFGQGTKLEIK
On to B1, for which the EC50 in the experiment with Dog CCR8 was found to be 2 nM; in the experiment with rat CCR8, 3.2 nM; with mouse CCR8, 0.79 nM; with cynomolgus CCR8, 23.1 nM.

As a reminder, the EC50 is the concentration giving half of the maximal effect.
